# Assay results from patent publication US20240352145A1, “EFFICACY OF ANTI-TROP-2-SN-38 ANTIBODY DRUG CONJUGATES FOR THERAPY OF TUMORS RELAPSED/REFRACTORY TO CHECKPOINT INHIBITORS” (Immunomedics, Inc., priority 2016, published 2024).
# Like-named read-outs stand apart in the source and are kept apart here.
# Key:
# [1] = system: MDA-MB-468 TNBC tumors; assay: MDA-MB-468 TNBC xenograft; type: in vivo, mouse
# [2] = system: TNBC; assay: Phase I/II, TNBC cohort; type: in vivo, human
# Source text: Previous treatments included cyclophosphamide, doxorubicin, carboplatin, gemcitabine, capecitabine, eribulin, cisplatinum, anastrozole, vinorelbine, bevacizumab and tamoxifen.
# [3] = system: MDA-MB-231; conditions: mouse, in vivo
# [4] = system: human pancreatic adenocarcinoma xenograft model (BxPC-3); assay: Clinically-relevant dosing schemes, BxPC-3 xenograft; type: in vivo, mouse; conditions: for TTP: untreated 5.0±2.3
# Source text: (§1) In Vivo Therapeutic Studies—NCr female athymic nude (nu/nu) mice, 4-8 weeks old, were purchased from Taconic Farms (Germantown, NY). NCI-N87 gastric tumor xenografts were established by harvesting cells from tissue culture and making a final cell suspension 1:1 in matrigel (BD Bioscience; San Jose, CA), with each mouse receiving a total of 1×10^7 cells s.c. in the right flank. For BxPC-3. xenografts of 1 g were harvested, and a tumor suspension made in HBSS to a concentration of 40% tumor w/v. This suspension was mixed 1:1 with matrigel for a final tumor suspension of 20% w/v. […] For IHC, tumors were allowed to grow to approximately 0.5 cm^3 before the mice were euthanized and the tumors removed, formalin-fixed and paraffin-embedded. For therapy studies, mice were randomized into treatment groups and therapy begun when tumor volumes were approximately 0.25 cm^3.
# (§2) Mice were euthanized and deemed to have succumbed to disease once tumors grew to greater than 1.0 cm^3 in size. […] Time to progression (TTP) was determined as time post-therapy initiation when the tumor grew more than 20% in size from its nadir.
# A human dose of 8 mg/kg translates to a murine dose of 98.4 mg/kg, or approximately 2 mg to a 20 g mouse.
# [5] = system: COLO 205; assay: In vitro cytotoxicity, COLO 205
# Source text: (§3) Cell lines, antibodies, and chemotherapeutics—All human cancer cell lines used in this study were purchased from the American Type Culture Collection.
# [6] = system: diverse metastatic cancers
# Experimental: To optimize cumulative treatment with minimal delays, phase II is focusing on 8 and 10 mg/kg (n=30 and 14, respectively).
# Two ELISA methods were used to measure the clearance of the IgG (capture with anti-hRS7 idiotype antibody) and the intact conjugate (capture with anti-SN-38 IgG/probe with anti-hRS7 idiotype antibody). SN-38 was measured by HPLC.
# [7] = system: SK-MES-1; assay: In vitro cytotoxicity, SK-MES-1
# Source text: as §3
# [8] = system: human gastric carcinoma xenograft, NCI-N87; assay: NCI-N87 gastric carcinoma xenograft, Example 17; type: in vivo, mouse
# Source text: as §1, §2
# Survival studies were analyzed using Kaplan-Meier plots (log-rank analysis), using the Prism GraphPad Software (v4.03) software package (Advanced Graphics Software, Inc., Encinitas, CA).
# [9] = esophageal cancer, 4 assessable patients
substance,measurement,setting,value
IMMU-132,tumor response,"[1]; 0.12 or 0.20 mg/kg SN-38-equivalents, vs saline, irinotecan, hA20-CL2A-SN-38",induced significant tumor regression
same,total volume [TV] five weeks after re-treatment,"[1]; mice progressed on hA20-CL2A-SN-38 (0.74±0.41 cm^3), then 0.2 mg/kg",0.14±0.14 cm^3
same,decrease in tumor size after re-treatment,"[1]; one animal each, tumors progressed to ~0.7 cm^3 on irinotecan",60%
same,"confirmed complete responses (CR), patients",[2]; 10 mg/kg,2
same,"partial responses (PR), patients",[2]; 10 mg/kg,13
same,"stable disease (SD), patients",[2]; 10 mg/kg,25
same,objective response rate,[2]; 15/52,29%
same,favorable response rate (CR plus PR plus SD),[2]; in vivo,71%
same,median time to progression,[2]; in vivo,9.4 months
same,specific therapeutic effects,[3],specific therapeutic effects with IMMU-132 were not achieved
same,anti-tumor effect vs untreated,[4]; all three dosing schemes of fractionated 2 mg,significant anti-tumor effect
same,TTP,[4]; eight doses of 0.25 mg,31.7 ± 14.5 days
same,TTP,[4]; two doses of 1 mg (days 1 and 15),22.4 ± 10.1 days
same,IC50,[5],0.00195 µM
same,dose-limiting toxicity,"[6]; 8, then 12 and 18 mg/kg, days 1 and 8 of 21-day cycles",dose-limiting neutropenia
same,median TTP in PDC patients,[6]; 8 wks for preceding last therapy,11.9 wks
same,"stable disease, PDC",[6]; 13 CT-assessable PDC patients,62%
same,patients with long-term stable disease,"[6]; 24 assessable patients, Phase I study",Over 80%
same,partial response (PR),"[6]; 48 assessable patients (excluding PDC), RECIST/CT",15%
same,maximum reduction,"[6]; CRC case, after 10 months of treatment",65%
same,CEA after treatment,"[6]; CRC case, from 781 ng/mL",26.5 ng/mL
same,"PD, number of patients","[6]; CRC, 18 assessable patients",6
same,"PR, number of patients","[6]; CRC, 18 assessable patients",1
same,total response [PR+SD],"[6]; CRC, 18 assessable patients",67%
same,"PD, number of patients","[6]; NSCLC, 5 assessable patients",1
same,"PR, number of patients","[6]; NSCLC, 5 assessable patients",1
same,total response [PR+SD],"[6]; NSCLC, 5 assessable patients",80%
same,"PD, number of patients","[6]; SCLC, 4 assessable patients",2
same,"PR, number of patients","[6]; SCLC, 4 assessable patients",2
same,total response [PR+SD],"[6]; SCLC, 4 assessable patients",50%
same,"PD, number of patients","[6]; TNBC, 8 assessable patients",2
same,"PR, number of patients","[6]; TNBC, 8 assessable patients",2
same,total response [PR+SD],"[6]; TNBC, 8 assessable patients",75%
same,"PD, number of patients",[6]; all 48 assessable patients,14
same,"PR, number of patients",[6]; all 48 assessable patients,7
same,total response [PR+SD],[6]; all 48 assessable patients,79%
same,total response [PR+SD],"[6]; all 48 assessable patients, listed as hRS7-SN-38",71%
same,"PD, number of patients",[6]; [9],1
same,"PR, number of patients",[6]; [9],1
same,total response [PR+SD],[6]; [9],75%
same,time to clearance of conjugate from serum,"[6]; human, in vivo",≤ 3 days
same,"Abdominal pain, Grade 3, number of patients",[6]; in vivo,0
same,"Abdominal pain, Grade 4, number of patients",[6]; in vivo,0
same,"Abdominal pain, TOTAL",[6]; in vivo,11%
same,"Alopecia, TOTAL",[6]; in vivo,40%
same,"Anemia, Grade 3",[6]; in vivo,(4%)
same,"Anemia, Grade 3, number of patients",[6]; in vivo,2
same,"Anemia, Grade 4, number of patients",[6]; in vivo,0
same,"Anemia, TOTAL",[6]; in vivo,13%
same,"Deep vein thrombosis, Grade 3",[6]; in vivo,(2%)
same,"Deep vein thrombosis, Grade 3, number of patients",[6]; in vivo,1
same,"Deep vein thrombosis, Grade 4, number of patients",[6]; in vivo,0
same,"Deep vein thrombosis, TOTAL",[6]; in vivo,2%
same,"Diarrhea, Grade 3",[6]; in vivo,(9%)
same,"Diarrhea, Grade 3, number of patients",[6]; in vivo,4
same,"Diarrhea, Grade 4, number of patients",[6]; in vivo,0
same,"Diarrhea, TOTAL",[6]; in vivo,47%
same,"Dysgeusia, Grade 3, number of patients",[6]; in vivo,0
same,"Dysgeusia, Grade 4, number of patients",[6]; in vivo,0
same,"Dysgeusia, TOTAL",[6]; in vivo,15%
same,"Fatigue, Grade 3",[6]; in vivo,(9%)
same,"Fatigue, Grade 3, number of patients",[6]; in vivo,4
same,"Fatigue, Grade 4, number of patients",[6]; in vivo,0
same,"Fatigue, TOTAL",[6]; in vivo,55%
same,"Hypokalemia, Grade 3",[6]; in vivo,(2%)
same,"Hypokalemia, Grade 3, number of patients",[6]; in vivo,1
same,"Hypokalemia, Grade 4, number of patients",[6]; in vivo,0
same,"Hypokalemia, TOTAL",[6]; in vivo,11%
same,"Nausea, Grade 3, number of patients",[6]; in vivo,0
same,"Nausea, Grade 4, number of patients",[6]; in vivo,0
same,"Nausea, TOTAL",[6]; in vivo,53%
same,"Neutropenia, Grade 3",[6]; in vivo,(24%)
same,"Neutropenia, Grade 3, number of patients",[6]; in vivo,11
same,"Neutropenia, Grade 4, number of patients (%)",[6]; in vivo,2 (4%)
same,"Neutropenia, TOTAL",[6]; in vivo,43%
same,"Pyrexia, Grade 3, number of patients",[6]; in vivo,0
same,"Pyrexia, Grade 4, number of patients",[6]; in vivo,0
same,"Pyrexia, TOTAL",[6]; in vivo,13%
same,SN-38 in the serum bound to the IgG,[6]; in vivo,> 95%
same,"Vomiting, Grade 3",[6]; in vivo,(2%)
same,"Vomiting, Grade 3, number of patients",[6]; in vivo,1
same,"Vomiting, Grade 4, number of patients",[6]; in vivo,0
same,"Vomiting, TOTAL",[6]; in vivo,32%
same,"WBC Decrease, Grade 3",[6]; in vivo,(2%)
same,"WBC Decrease, Grade 3, number of patients",[6]; in vivo,1
same,"WBC Decrease, Grade 4, number of patients",[6]; in vivo,0
same,"WBC Decrease, TOTAL",[6]; in vivo,6%
same,anti-hRS7 or anti-SN-38 antibodies,[6]; in vivo,No anti-hRS7 or anti-SN-38 antibodies were detected
same,anti-hRS7 or anti-SN-38 antibody response,[6]; in vivo,no anti-hRS7 or anti-SN-38 antibody response has been detected
same,clearance of intact conjugate vs IgG,[6]; in vivo,cleared more quickly than the IgG
same,diarrhea ≥G3,[6]; in vivo,9%
same,fatigue ≥G3,[6]; in vivo,9%
same,"incidence of Grade 3 or higher, all other adverse events",[6]; in vivo,less than 10%
same,"median time to progression (TTP), PDC",[6]; in vivo,12.7 wks
same,nausea ≥G3,[6]; in vivo,0%
same,neutropenia Grade 4,[6]; in vivo,4%
same,neutropenia ≥Grade 3,[6]; in vivo,28%
same,vomiting ≥G3,[6]; in vivo,2%
same,"reduction in target lesions, first CT","[6]; person, CRC, 8 mg/kg",37%
same,primary target lesion size at first CT,"[6]; person, NSCLC, 5.6 cm at start, after 6th dose",3.2 cm
same,reduction in target lesions,"[6]; person, SCLC, 12 mg/kg reduced to 6.8 mg/kg, after two months",38%
same,TTP,[6]; remaining 48 patients,≥ 12.6 wks
same,IC50,[7],0.0231 µM
same,anti-tumor effects vs non-specific control,"[8]; 17.5 mg/kg, twice weekly x 4 weeks",significant anti-tumor effects
same,median survival time (MST),[8]; 14 days for saline control,66 days
same,mean time to progression (TTP),"[8]; mouse, in vivo",41.7 ± 4.2 days
same,"partial responders, mice","[8]; mouse, in vivo",6 of 7
